Drawing on the RNAGym collection of RNA variant scans (doi:10.1093/molbev/msab373), this text covers reverse-splicing fitness for 15 variants.

First the molecules themselves.
B1: Azoarcus group I ribozyme (parent)
chain: GUGCCUUGCGCCGGGAAACCACGCAAGGGAUGGUGUCAAAUUCGGCGAAACCUAAGCGCCCGCCCGGGCGUAUGGCAACGCCGAGCCAAGCUUCGGCGCCUGCGCCGAUGAAGGUGUAGAGACUAGACGGCACCCACCUAAGGCAAACGCUAUGGUGAAGGCAUAGUCCAGGGAGUGGCGAAAGUCACACAAACCGG

In the data set the parent is B1. Put plainly: reverse-splicing fitness (ratio to wild type); higher = more active; in vitro selection; Mg2+ level not given. In short, it runs like this:
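An in vitro group I ribozyme library with randomized positions was T7-transcribed and gel-purified. In triplicate, 10 pmol RNA in EPPS pH 7.5 was reacted with 50 pmoles of a 30-nt RNA substrate for 1 h at 37 °C across several added MgCl2 levels (1–48 mM), then stopped with EDTA. Products were reverse transcribed from a substrate-complementary primer, PCR-amplified and sequenced (HiSeq 4000). Fitness is a variant's read proportion after selection over that before, normalised to wild type.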
GUGCCUUGCGCCGGGAAACCACGCAAGGGAUGGUGUCAAAUUCGGCGAAACCUAAGCGCCCGCCCGGGCGUAUGGCAACGCGGAGCCAAGCUUCGGCGCCUGCGCCGAUGAAGGUGUAGUGACUAGACGGCACCCACCUAAGGCAAACGAUAUGGUGAAGGCAUAGUCCAGGGAGCGGCGAAAGUCACACAAACCGG [C82G A120U C150A U176C]: the reverse-splicing fitness was determined as 0.0129.

For GUGCCUUGCGCCGGGAAACCACGCAAGGGAUGGUGUCAAAUUCGGCGAAACCUAAGCGCCCGCCCGGGCGUAUGGCAACGCGGAGCCAAGCUUCGGCGCCUGCGCCGAUGAAGGUGUAGUGACUAGACGGCACCCACCUAAGGCAAACGAUAUGGUGAAGGCAUAGUCCAGGGAGGGGCGAAAGUCACACAAACCGG [C82G A120U C150A U176G], the reverse-splicing fitness was 0.00569.

In the case of GUGCCUUGCGCCGGGAAACCACGCAAGGGAUGGUGUCAAAUUCGGCGAAACCUAAGCGCCCGCCCGGGCGUAUGGCAACGCGGAGCCAAGCUUCGGCGCCUGCGCCGAUGAAGGUGUAGUGACUAGACGGCACCCACCUAAGGCAAACGAUAUGGUGAAGGCAUAGUCCAGGGAGAGGCGAAAGUCACACAAACCGG [C82G A120U C150A U176A], the reverse-splicing fitness came out at 0.0102.

On to GUGCCUUGCGCCGGGAAACCACGCAAGGGAUGGUGUCAAAUUCGGCGAAACCUAAGCGCCCGCCCGGGCGUAUGGCAACGCGGAGCCAAGCUUCGGCGCCUGCGCCGAUGAAGGUGUAGUGACUAGACGGCACCCACCUAAGGCAAACGGUAUGGUGAAGGCAUAGUCGAGGGAGUGGCGAAAGUCACACAAACCGG [C82G A120U C150G C169G], for which the reverse-splicing fitness came to 0.0053.

GUGCCUUGCGCCGGGAAACCACGCAAGGGAUGGUGUCAAAUUCGGCGAAACCUAAGCGCCCGCCCGGGCGUAUGGCAACGCGGAGCCAAGCUUCGGCGCCUGCGCCGAUGAAGGUGUAGUGACUAGACGGCACCCACCUAAGGCAAACGGUAUGGUGAAGGCAUAGUCAAGGGAGUGGCGAAAGUCACACAAACCGG [C82G A120U C150G C169A]: the reverse-splicing fitness worked out at 0.00734.

Take GUGCCUUGCGCCGGGAAACCACGCAAGGGAUGGUGUCAAAUUCGGCGAAACCUAAGCGCCCGCCCGGGCGUAUGGCAACGCGGAGCCAAGCUUCGGCGCCUGCGCCGAUGAAGGUGUAGUGACUAGACGGCACCCACCUAAGGCAAACGGUAUGGUGAAGGCAUAGUCCAGGGAGUGGCGAAAGUCACACAAACCGG [C82G A120U C150G]: the reverse-splicing fitness came to 0.0146.

On to GUGCCUUGCGCCGGGAAACCACGCAAGGGAUGGUGUCAAAUUCGGCGAAACCUAAGCGCCCGCCCGGGCGUAUGGCAACGCGGAGCCAAGCUUCGGCGCCUGCGCCGAUGAAGGUGUAGUGACUAGACGGCACCCACCUAAGGCAAACGGUAUGGUGAAGGCAUAGUCGAGGGAGGGGCGAAAGUCACACAAACCGG [C82G A120U C150G C169G U176G], for which the reverse-splicing fitness turned out to be 0.00218.

As for GUGCCUUGCGCCGGGAAACCACGCAAGGGAUGGUGUCAAAUUCGGCGAAACCUAAGCGCCCGCCCGGGCGUAUGGCAACGCGGAGCCAAGCUUCGGCGCCUGCGCCGAUGAAGGUGUAGUGACUAGACGGCACCCACCUAAGGCAAACGGUAUGGUGAAGGCAUAGUCGAGGGAGCGGCGAAAGUCACACAAACCGG [C82G A120U C150G C169G U176C], the reverse-splicing fitness worked out at 0.00277.

GUGCCUUGCGCCGGGAAACCACGCAAGGGAUGGUGUCAAAUUCGGCGAAACCUAAGCGCCCGCCCGGGCGUAUGGCAACGCGGAGCCAAGCUUCGGCGCCUGCGCCGAUGAAGGUGUAGUGACUAGACGGCACCCACCUAAGGCAAACGGUAUGGUGAAGGCAUAGUCGAGGGAGAGGCGAAAGUCACACAAACCGG [C82G A120U C150G C169G U176A]: the reverse-splicing fitness was 0.00454.

Consider GUGCCUUGCGCCGGGAAACCACGCAAGGGAUGGUGUCAAAUUCGGCGAAACCUAAGCGCCCGCCCGGGCGUAUGGCAACGCGGAGCCAAGCUUCGGCGCCUGCGCCGAUGAAGGUGUAGUGACUAGACGGCACCCACCUAAGGCAAACGGUAUGGUGAAGGCAUAGUCAAGGGAGGGGCGAAAGUCACACAAACCGG [C82G A120U C150G C169A U176G], for which the reverse-splicing fitness amounted to 0.00278.

For GUGCCUUGCGCCGGGAAACCACGCAAGGGAUGGUGUCAAAUUCGGCGAAACCUAAGCGCCCGCCCGGGCGUAUGGCAACGCGGAGCCAAGCUUCGGCGCCUGCGCCGAUGAAGGUGUAGUGACUAGACGGCACCCACCUAAGGCAAACGGUAUGGUGAAGGCAUAGUCAAGGGAGCGGCGAAAGUCACACAAACCGG [C82G A120U C150G C169A U176C], the reverse-splicing fitness amounted to 0.00402.

As to GUGCCUUGCGCCGGGAAACCACGCAAGGGAUGGUGUCAAAUUCGGCGAAACCUAAGCGCCCGCCCGGGCGUAUGGCAACGCGGAGCCAAGCUUCGGCGCCUGCGCCGAUGAAGGUGUAGUGACUAGACGGCACCCACCUAAGGCAAACGGUAUGGUGAAGGCAUAGUCAAGGGAGAGGCGAAAGUCACACAAACCGG [C82G A120U C150G C169A U176A], the reverse-splicing fitness came out at 0.00571.

As for GUGCCUUGCGCCGGGAAACCACGCAAGGGAUGGUGUCAAAUUCGGCGAAACCUAAGCGCCCGCCCGGGCGUAUGGCAACGCGGAGCCAAGCUUCGGCGCCUGCGCCGAUGAAGGUGUAGUGACUAGACGGCACCCACCUAAGGCAAACGAUAUGGUGAAGGCAUAGUCUAGGGAGGGGCGAAAGUCACACAAACCGG [C82G A120U C150A C169U U176G], the reverse-splicing fitness is 0.00185.

Take GUGCCUUGCGCCGGGAAACCACGCAAGGGAUGGUGUCAAAUUCGGCGAAACCUAAGCGCCCGCCCGGGCGUAUGGCAACGCGGAGCCAAGCUUCGGCGCCUGCGCCGAUGAAGGUGUAGUGACUAGACGGCACCCACCUAAGGCAAACGAUAUGGUGAAGGCAUAGUCUAGGGAGCGGCGAAAGUCACACAAACCGG [C82G A120U C150A C169U U176C]: the reverse-splicing fitness worked out at 0.00296.

For the variant GUGCCUUGCGCCGGGAAACCACGCAAGGGAUGGUGUCAAAUUCGGCGAAACCUAAGCGCCCGCCCGGGCGUAUGGCAACGCGGAGCCAAGCUUCGGCGCCUGCGCCGAUGAAGGUGUAGUGACUAGACGGCACCCACCUAAGGCAAACGAUAUGGUGAAGGCAUAGUCUAGGGAGAGGCGAAAGUCACACAAACCGG [C82G A120U C150A C169U U176A], the reverse-splicing fitness worked out at 0.00396.
